Results on one molecule are retold here after patent US20230303666A1 (published 2023).

The target of the test is recombinant RBD (ThermoFisher, RP-87678) (SARS-CoV-2, UniProt P0DTC2 319-541).

B1: SR6v15 with GST tag (VHH, not shown: a dimerising Fc or GST)
VHH: EVQLVESGGGLVQAGDSLRLSCAASGDSYILWRMGWFRQAPGKEREFVAAISLDGQFTNYADSVRGRFSISADSAKYTVYLQMNSLKPEDTAVYYCAALPFLDYWGQGTQVTVSS
With B1, the Kd was 2.18 nM.
